Assay results: PMC9482650, “Quantitative fragmentomics allow affinity mapping of interactomes” (Nature Communications, 2022)

T1: DFNB31_2, Q9P202
T1 sequence (Q9P202 274-371, limits assumed, looked up): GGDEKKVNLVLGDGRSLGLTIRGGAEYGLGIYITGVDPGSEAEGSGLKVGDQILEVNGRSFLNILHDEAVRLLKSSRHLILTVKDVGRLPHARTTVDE

T2: DFNB31_3, Q9P202
T2 sequence (Q9P202 811-907, limits assumed, looked up): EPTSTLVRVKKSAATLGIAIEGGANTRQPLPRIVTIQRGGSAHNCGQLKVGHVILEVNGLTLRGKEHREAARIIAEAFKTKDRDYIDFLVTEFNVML

T3: DLG3_3, Q92796
T3 sequence (Q92796 374-475, limits assumed, looked up): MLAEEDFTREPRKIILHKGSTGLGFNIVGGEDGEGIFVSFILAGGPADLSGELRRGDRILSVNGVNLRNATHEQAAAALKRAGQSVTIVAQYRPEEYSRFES

T4: DVL3, Q92997
T4 sequence (Q92997 244-331, limits assumed, looked up): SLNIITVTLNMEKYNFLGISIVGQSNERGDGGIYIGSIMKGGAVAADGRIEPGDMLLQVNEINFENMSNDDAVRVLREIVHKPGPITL

T5: GRIP1_5, Q9Y3R0
T5 sequence (Q9Y3R0 568-668, limits assumed, looked up): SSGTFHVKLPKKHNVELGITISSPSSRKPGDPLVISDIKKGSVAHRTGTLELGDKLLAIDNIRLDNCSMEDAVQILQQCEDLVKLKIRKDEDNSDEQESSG

T6: GRIP1_7, Q9Y3R0
T6 sequence (Q9Y3R0 999-1096, limits assumed, looked up): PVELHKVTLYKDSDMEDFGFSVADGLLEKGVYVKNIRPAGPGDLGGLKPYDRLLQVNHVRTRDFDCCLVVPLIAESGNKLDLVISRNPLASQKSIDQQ

T7: LIN7C, Q9NUP9
T7 sequence (Q9NUP9 88-185, limits assumed, looked up): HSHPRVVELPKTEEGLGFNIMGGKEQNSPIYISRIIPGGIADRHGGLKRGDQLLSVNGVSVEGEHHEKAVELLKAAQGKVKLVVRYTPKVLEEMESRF

T8: LNX2_2, Q8N448
T8 sequence (Q8N448 334-432, limits assumed, looked up): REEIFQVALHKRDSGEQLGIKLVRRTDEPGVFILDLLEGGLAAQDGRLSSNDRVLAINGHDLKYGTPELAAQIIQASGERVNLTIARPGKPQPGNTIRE

T9: LNX2_3, Q8N448
T9 sequence (Q8N448 463-564, limits assumed, looked up): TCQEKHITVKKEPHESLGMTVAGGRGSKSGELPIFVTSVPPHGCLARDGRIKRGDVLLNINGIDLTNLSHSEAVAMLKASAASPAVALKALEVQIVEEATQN

T10: MPP2, Q14168
T10 sequence (Q14168 180-250, limits assumed, looked up): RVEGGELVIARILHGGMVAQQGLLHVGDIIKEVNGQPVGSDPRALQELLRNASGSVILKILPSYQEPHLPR

T11: NHERF3_1, Q5T2W1
T11 sequence (Q5T2W1 4-100, limits assumed, looked up): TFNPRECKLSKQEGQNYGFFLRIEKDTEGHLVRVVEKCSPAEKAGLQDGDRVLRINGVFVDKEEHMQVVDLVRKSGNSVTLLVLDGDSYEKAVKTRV

T12: PTPN13_1, Q12923
T12 sequence (Q12923 1088-1188, limits assumed, looked up): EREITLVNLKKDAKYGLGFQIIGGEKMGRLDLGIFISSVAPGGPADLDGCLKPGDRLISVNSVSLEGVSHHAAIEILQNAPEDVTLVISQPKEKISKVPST

B1: PRR16, Q569H4 (peptide)
chain: ILRKSTTTTV
B2: KARS1, Q15046 (peptide)
chain: LESTTVGTSV

Molecular target: T1, DFNB31_2, Q9P202
Experiment: holdup assay
Set-up: key: below the threshold = too weak to quantify, mostly under pKd 3.1 to 4
Details: plain residues with an end cap or a label only (N-terminal biotin on a linker: ado-ado)

| Binder | pKd |
| --- | --- |
| B1 | below the threshold |
| B2 | below the threshold |

Molecular target: T2, DFNB31_3, Q9P202
Experiment: holdup assay
Set-up: key: below the threshold = too weak to quantify, mostly under pKd 3.1 to 4
Details: plain residues with an end cap or a label only (N-terminal biotin on a linker: ado-ado)

| Binder | pKd |
| --- | --- |
| B1 | below the threshold |
| B2 | below the threshold |

Molecular target: DLG1_1, Q12959
Experiment: holdup assay
Set-up: key: below the threshold = too weak to quantify, mostly under pKd 3.1 to 4
Details: plain residues with an end cap or a label only (N-terminal biotin on a linker: ado-ado)

| Binder | pKd |
| --- | --- |
| B1 | 4.76 |
| B2 | 4.27 |

Molecular target: T3, DLG3_3, Q92796
Experiment: holdup assay
Set-up: key: below the threshold = too weak to quantify, mostly under pKd 3.1 to 4
Details: plain residues with an end cap or a label only (N-terminal biotin on a linker: ado-ado)

| Binder | pKd |
| --- | --- |
| B1 | 3.97 |
| B2 | 3.6 |

Molecular target: T4, DVL3, Q92997
Experiment: holdup assay
Set-up: key: below the threshold = too weak to quantify, mostly under pKd 3.1 to 4
Details: plain residues with an end cap or a label only (N-terminal biotin on a linker: ado-ado)

| Binder | pKd |
| --- | --- |
| B1 | below the threshold |
| B2 | below the threshold |

Molecular target: FRMPD3, Q5JV73
Sequence (Q5JV73 12-100): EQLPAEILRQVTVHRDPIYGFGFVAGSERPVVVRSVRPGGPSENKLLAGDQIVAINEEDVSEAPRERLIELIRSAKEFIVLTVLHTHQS
Experiment: holdup assay
Set-up: key: below the threshold = too weak to quantify, mostly under pKd 3.1 to 4
Details: plain residues with an end cap or a label only (N-terminal biotin on a linker: ado-ado)

| Binder | pKd |
| --- | --- |
| B1 | below the threshold |
| B2 | below the threshold |

Molecular target: T5, GRIP1_5, Q9Y3R0
Experiment: holdup assay
Set-up: key: below the threshold = too weak to quantify, mostly under pKd 3.1 to 4
Details: plain residues with an end cap or a label only (N-terminal biotin on a linker: ado-ado)

| Binder | pKd |
| --- | --- |
| B1 | below the threshold |
| B2 | below the threshold |

Molecular target: T6, GRIP1_7, Q9Y3R0
Experiment: holdup assay
Set-up: key: below the threshold = too weak to quantify, mostly under pKd 3.1 to 4
Details: plain residues with an end cap or a label only (N-terminal biotin on a linker: ado-ado)

| Binder | pKd |
| --- | --- |
| B1 | below the threshold |
| B2 | below the threshold |

Molecular target: GRIP2_6, Q9C0E4
Sequence (Q9C0E4 648-740): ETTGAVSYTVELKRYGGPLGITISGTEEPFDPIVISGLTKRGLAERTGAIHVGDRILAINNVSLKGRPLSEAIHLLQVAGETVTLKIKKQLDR
Experiment: holdup assay
Set-up: key: below the threshold = too weak to quantify, mostly under pKd 3.1 to 4
Details: plain residues with an end cap or a label only (N-terminal biotin on a linker: ado-ado)

| Binder | pKd |
| --- | --- |
| B1 | below the threshold |
| B2 | below the threshold |

Molecular target: IL16_3, Q14005
Sequence (Q14005 1107-1207): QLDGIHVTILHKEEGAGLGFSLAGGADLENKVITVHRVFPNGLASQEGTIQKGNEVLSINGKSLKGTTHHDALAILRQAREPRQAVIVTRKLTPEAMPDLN
Experiment: holdup assay
Set-up: key: below the threshold = too weak to quantify, mostly under pKd 3.1 to 4
Details: plain residues with an end cap or a label only (N-terminal biotin on a linker: ado-ado)

| Binder | pKd |
| --- | --- |
| B1 | below the threshold |
| B2 | below the threshold |

Molecular target: Inadl_4, Q8NI35
Sequence (Q8NI35 547-651): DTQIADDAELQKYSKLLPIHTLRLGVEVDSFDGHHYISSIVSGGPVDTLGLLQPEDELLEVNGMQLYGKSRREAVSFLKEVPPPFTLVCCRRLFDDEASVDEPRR
Experiment: holdup assay
Set-up: key: below the threshold = too weak to quantify, mostly under pKd 3.1 to 4
Details: plain residues with an end cap or a label only (N-terminal biotin on a linker: ado-ado)

| Binder | pKd |
| --- | --- |
| B1 | below the threshold |
| B2 | below the threshold |

Molecular target: LIMK2, P53671
Sequence (P53671 143-248): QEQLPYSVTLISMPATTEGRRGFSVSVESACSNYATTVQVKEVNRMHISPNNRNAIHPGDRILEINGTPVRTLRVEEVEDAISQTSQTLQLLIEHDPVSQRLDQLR
Experiment: holdup assay
Set-up: key: below the threshold = too weak to quantify, mostly under pKd 3.1 to 4
Details: plain residues with an end cap or a label only (N-terminal biotin on a linker: ado-ado)

| Binder | pKd |
| --- | --- |
| B1 | below the threshold |
| B2 | below the threshold |

Molecular target: T7, LIN7C, Q9NUP9
Experiment: holdup assay
Set-up: key: below the threshold = too weak to quantify, mostly under pKd 3.1 to 4
Details: plain residues with an end cap or a label only (N-terminal biotin on a linker: ado-ado)

| Binder | pKd |
| --- | --- |
| B1 | below the threshold |
| B2 | below the threshold |

Molecular target: LNX1_1, Q8TBB1
Sequence (Q8TBB1 261-371): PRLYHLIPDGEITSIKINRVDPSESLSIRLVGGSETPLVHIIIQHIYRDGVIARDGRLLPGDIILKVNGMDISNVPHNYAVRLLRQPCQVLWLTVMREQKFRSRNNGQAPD
Experiment: holdup assay
Set-up: key: below the threshold = too weak to quantify, mostly under pKd 3.1 to 4
Details: plain residues with an end cap or a label only (N-terminal biotin on a linker: ado-ado)

| Binder | pKd |
| --- | --- |
| B1 | below the threshold |
| B2 | 3.97 |

Molecular target: T8, LNX2_2, Q8N448
Experiment: holdup assay
Set-up: key: below the threshold = too weak to quantify, mostly under pKd 3.1 to 4
Details: plain residues with an end cap or a label only (N-terminal biotin on a linker: ado-ado)

| Binder | pKd |
| --- | --- |
| B1 | 4.84 |
| B2 | 4.39 |

Molecular target: T9, LNX2_3, Q8N448
Experiment: holdup assay
Set-up: key: below the threshold = too weak to quantify, mostly under pKd 3.1 to 4
Details: plain residues with an end cap or a label only (N-terminal biotin on a linker: ado-ado)

| Binder | pKd |
| --- | --- |
| B1 | below the threshold |
| B2 | below the threshold |

Molecular target: MAGI1_2, Q96QZ7
Sequence (Q96QZ7 456-580): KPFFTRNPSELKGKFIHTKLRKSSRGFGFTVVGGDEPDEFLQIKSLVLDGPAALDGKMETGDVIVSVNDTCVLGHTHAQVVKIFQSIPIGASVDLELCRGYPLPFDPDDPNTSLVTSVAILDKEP
Experiment: holdup assay
Set-up: key: below the threshold = too weak to quantify, mostly under pKd 3.1 to 4
Details: plain residues with an end cap or a label only (N-terminal biotin on a linker: ado-ado)

| Binder | pKd |
| --- | --- |
| B1 | 4.76 |
| B2 | below the threshold |

Molecular target: MAGI2_3, Q86UL8
Sequence (Q86UL8 600-682): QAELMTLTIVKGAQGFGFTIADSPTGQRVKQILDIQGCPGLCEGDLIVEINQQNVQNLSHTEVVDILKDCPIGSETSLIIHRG
Experiment: holdup assay
Set-up: key: below the threshold = too weak to quantify, mostly under pKd 3.1 to 4
Details: plain residues with an end cap or a label only (N-terminal biotin on a linker: ado-ado)

| Binder | pKd |
| --- | --- |
| B1 | 3.74 |
| B2 | 3.73 |

Molecular target: T10, MPP2, Q14168
Experiment: holdup assay
Set-up: key: below the threshold = too weak to quantify, mostly under pKd 3.1 to 4
Details: plain residues with an end cap or a label only (N-terminal biotin on a linker: ado-ado)

| Binder | pKd |
| --- | --- |
| B1 | below the threshold |
| B2 | below the threshold |

Molecular target: T11, NHERF3_1, Q5T2W1
Experiment: holdup assay
Set-up: key: below the threshold = too weak to quantify, mostly under pKd 3.1 to 4
Details: plain residues with an end cap or a label only (N-terminal biotin on a linker: ado-ado)

| Binder | pKd |
| --- | --- |
| B1 | below the threshold |
| B2 | 4.13 |

Molecular target: NHERF4_1, Q86UT5-2
Sequence (Q86UT5 other isoform, or with tags, fused parts or gaps): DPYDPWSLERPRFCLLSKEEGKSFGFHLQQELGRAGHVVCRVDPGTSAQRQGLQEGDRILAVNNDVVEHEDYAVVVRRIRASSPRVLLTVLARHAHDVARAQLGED
Experiment: holdup assay
Set-up: key: below the threshold = too weak to quantify, mostly under pKd 3.1 to 4
Details: plain residues with an end cap or a label only (N-terminal biotin on a linker: ado-ado)

| Binder | pKd |
| --- | --- |
| B1 | below the threshold |
| B2 | below the threshold |

Molecular target: T12, PTPN13_1, Q12923
Experiment: holdup assay
Set-up: key: below the threshold = too weak to quantify, mostly under pKd 3.1 to 4
Details: plain residues with an end cap or a label only (N-terminal biotin on a linker: ado-ado)

| Binder | pKd |
| --- | --- |
| B1 | below the threshold |
| B2 | below the threshold |

Molecular target: PTPN3, P26045
Sequence (P26045 505-587): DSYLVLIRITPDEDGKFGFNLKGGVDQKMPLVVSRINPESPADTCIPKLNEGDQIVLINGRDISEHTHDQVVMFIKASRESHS
Experiment: holdup assay
Set-up: key: below the threshold = too weak to quantify, mostly under pKd 3.1 to 4
Details: plain residues with an end cap or a label only (N-terminal biotin on a linker: ado-ado)

| Binder | pKd |
| --- | --- |
| B1 | 3.92 |
| B2 | 4.82 |

Molecular target: SCRIB_2, Q14160
Sequence (Q14160 857-960): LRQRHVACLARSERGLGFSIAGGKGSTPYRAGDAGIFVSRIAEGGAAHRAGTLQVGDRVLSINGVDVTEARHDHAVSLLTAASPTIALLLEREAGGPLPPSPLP
Experiment: holdup assay
Set-up: key: below the threshold = too weak to quantify, mostly under pKd 3.1 to 4
Details: plain residues with an end cap or a label only (N-terminal biotin on a linker: ado-ado)

| Binder | pKd |
| --- | --- |
| B1 | below the threshold |
| B2 | 4.46 |

Molecular target: SCRIB_3, Q14160
Sequence (Q14160 999-1103): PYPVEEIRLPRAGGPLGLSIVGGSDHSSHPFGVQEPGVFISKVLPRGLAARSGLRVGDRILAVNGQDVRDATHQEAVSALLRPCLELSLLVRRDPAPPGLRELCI
Experiment: holdup assay
Set-up: key: below the threshold = too weak to quantify, mostly under pKd 3.1 to 4
Details: plain residues with an end cap or a label only (N-terminal biotin on a linker: ado-ado)

| Binder | pKd |
| --- | --- |
| B1 | 3.67 |
| B2 | 4.4 |

Molecular target: TJP2_1, Q9UDY2
Sequence (Q9UDY2 24-128): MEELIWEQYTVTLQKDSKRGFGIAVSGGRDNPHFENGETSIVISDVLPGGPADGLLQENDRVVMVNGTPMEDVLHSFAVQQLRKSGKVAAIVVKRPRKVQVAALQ
Experiment: holdup assay
Set-up: key: below the threshold = too weak to quantify, mostly under pKd 3.1 to 4
Details: plain residues with an end cap or a label only (N-terminal biotin on a linker: ado-ado)

| Binder | pKd |
| --- | --- |
| B1 | 3.83 |
| B2 | below the threshold |
